Target: T1, VSV Gth, soluble form of the ectodomain of VSV glycoprotein G (residues 1-422) (Vesicular stomatitis virus (Mudd-Summer …, UniProt P0C2X0 17-438))
T1 sequence: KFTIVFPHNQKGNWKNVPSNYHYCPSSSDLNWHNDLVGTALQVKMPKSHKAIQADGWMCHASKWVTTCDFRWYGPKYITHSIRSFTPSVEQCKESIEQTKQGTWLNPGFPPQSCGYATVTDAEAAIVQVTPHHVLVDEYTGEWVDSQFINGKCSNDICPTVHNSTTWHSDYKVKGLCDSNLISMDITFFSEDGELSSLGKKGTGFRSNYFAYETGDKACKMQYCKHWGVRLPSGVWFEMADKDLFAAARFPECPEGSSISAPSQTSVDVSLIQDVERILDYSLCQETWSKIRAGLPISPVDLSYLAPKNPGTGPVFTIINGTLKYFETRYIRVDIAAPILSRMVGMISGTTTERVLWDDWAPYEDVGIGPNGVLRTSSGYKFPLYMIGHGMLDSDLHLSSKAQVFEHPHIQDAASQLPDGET
Assay: ITC
Details: both partners purified

B1: LDL-R CR2 domain, isolated (GST cleaved off) (domain or fragment)
chain: not shown
notes: also called CR2 monovalent domain; not shown: GST, N-terminal, cleaved
Kd: 7.3 µM
stoichiometry N: 1

B2: LDL-R CR3 domain, isolated (GST cleaved off) (domain or fragment)
chain: not shown
notes: also called CR3 monovalent domain; not shown: GST, N-terminal, cleaved
Kd: 4.3 µM
stoichiometry N: 1
